Laboratory results published in PMC4692061 (Biochemical Journal, 2015).

Target: the molecule itself
Assay: FRET or BRET

B1: full-length EphA3 (erythropoietin-producing hepatocellular carcinoma A3 receptor tyrosine kinase) tagged at the C-terminus with mTurq or eYFP (receptor, UniProt P29320 21-983, looked up)
chain: ELIPQPSNEVNLLDSKTIQGELGWISYPSHGWEEISGVDEHYTPIRTYQVCNVMDHSQNNWLRTNWVPRNSAQKIYVELKFTLRDCNSIPLVLGTCKETFNLYYMESDDDHGVKFREHQFTKIDTIAADESFTQMDLGDRILKLNTEIREVGPVNKKGFYLAFQDVGACVALVSVRVYFKKCPFTVKNLAMFPDTVPMDSQSLVEVRGSCVNNSKEEDPPRMYCSTEGEWLVPIGKCSCNAGYEERGFMCQACRPGFYKALDGNMKCAKCPPHSSTQEDGSMNCRCENNYFRADKDPPSMACTRPPSSPRNVISNINETSVILDWSWPLDTGGRKDVTFNIICKKCGWNIKQCEPCSPNVRFLPRQFGLTNTTVTVTDLLAHTNYTFEIDAVNGVSELSSPPRQFAAVSITTNQAAPSPVLTIKKDRTSRNSISLSWQEPEHPNGIILDYEVKYYEKQEQETSYTILRARGTNVTISSLKPDTIYVFQIRARTAAGYGTNSRKFEFETSPDSFSISGESSQVVMIAISAAVAIILLTVVIYVLIGRFCGYKSKHGADEKRLHFGNGHLKLPGLRTYVDPHTYEDPTQAVHEFAKELDATNISIDKVVGAGEFGEVCSGRLKLPSKKEISVAIKTLKVGYTEKQRRDFLGEASIMGQFDHPNIIRLEGVVTKSKPVMIVTEYMENGSLDSFLRKHDAQFTVIQLVGMLRGIASGMKYLSDMGYVHRDLAARNILINSNLVCKVSDFGLSRVLEDDPEAAYTTRGGKIPIRWTSPEAIAYRKFTSASDVWSYGIVLWEVMSYGERPYWEMSNQDVIKAVDEGYRLPPPMDCPAALYQLMLDCWQKDRNNRPKFEQIVSILDKLIRNPGSLKIITSAAARPSNLLLDQSNVDITTFRTTGDWLNGVWTAHCKEIFTGVEYSSCDTIAKISTDDMKKVGVTVVGPQKKIISSIKALETQSKNGPVPV
- stoichiometry N: 2
